# Reference: the nanobody polyreactivity screen of Harvey et al. (2022)
# Test: yeast display, Sf9 membrane polyspecificity reagent, FACS + sequencing; frameworks hold sequencing errors
# Method in brief: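 Nanobodies came from a synthetic yeast display library in Saccharomyces cerevisiae BJ5465, induced with galactose for 36–48 hours and stained for 1 hour at 4 °C with 10% biotinylated, detergent-solubilized Sf9 membrane reagent. Cells were enriched on streptavidin microbeads and then FACS-sorted, with low and high (top ~1%) gates set on anti-HA fluorescence for expression and streptavidin fluorescence for reagent binding. Each polyreactivity label reflects the gate a clone came from. Genes were amplified by colony PCR, sequenced by MiSeq 2 × 250 and filtered by CDR length.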
row,Sequence,polyreactivity (PSR sort gate)
1,QVQLVESGGGLVQAGGSLRLSCAASGSTFEPNAMGWYRQAPGKERELVAAIDTDASTYYADSVKGRFTISRDNAKNTVYLQMNSLKPEDTAVYYCAADYYIAITYYDGDDYWGQGTQVTVSS,low polyreactivity
2,QVQLVESSGGLVQAGGSLRLSCAASGFNFKRYAMGWSRQAPGKEREMVAAINSGGSTNYADSVKGRFTISRDNAKNTVYLQMNSLKPEDTAVYYCAASTSRYYWYALRDYWGQGTQVTVSS,high polyreactivity
3,QVQLVESGGGLVQARGSLRLSCAGSGRTFGYYAMGWYRHAPGKERELVAAIDQSDTYYADSVKGRFTISRDNAKITVSLQMNSLKPEDTAVYYCAADGDPSIEDEYWGQGTQVTVSS,high polyreactivity
4,QVQLVESGGGLVQAGGSLRLSCAASGRIFGAYAMGWYRPAPGKERELVAAITGGDSTYYADSVKGRFTISRDNAKNTVYLQMNSLKPEDTAVYYCAADLTPEGVLQLGKYINYDSWGQGTQVTVSS,low polyreactivity
5,QVQLVESGGGLVQAGGSLRLSCPASGFTFKSYAMGWYRQAPGKERELVAAISRGGSTYYADSVKGRFTISRDNAKNTVYLQMNSLKPEDTAVYYCNKTRYSRSYYEYDYWGQGTQVTVSS,low polyreactivity
6,QGQLVESGVGLVQAGGSLRLSCAASGLTFSWYAMGWYRQAPGKERELVAVITTSGGSTYYSDSVKGRFTISRDNAKNTVYLQMNSLKPEDTAVYYCAVGVPSWEFDYWGQGTHVTVSS,low polyreactivity
7,QVQLVESGGGLVQAGGSLRLSCAASGRIFWWYTMGWSRQAPGKERELVAAISGSGGSTYYADSVKGRFTISRDNAKNTVYLQMNSLKPEDTAVYYCAAYHRRRATPIHSGEYGYWGQGTQVTVSS,high polyreactivity
8,QVQLVESGGGLVQAGGSLRLSCAASGSISSGYFMGWYRQAPGKERELVAAISFSGGSTYYADSVKGRFTISRDNAKNTVYLQMNSLKPEDTAVYYCNALFWYRYFSGVSQDYDYWGQGTQVTVSS,high polyreactivity
9,QVQLVESGGGLVQAGGSLRLSCAASGRIFGYAMGWYRQAPGKERELVAAITSSGGRTYYADSVKGRFTISRDNAKNTVYLQMNSLKPEDTAVYYCAAEYLAVSGYWYDYWGQGTQVTVSS,high polyreactivity
10,QVQLVESGGGLVQAGGSLRLSCAASGLTFIHYSMGWYRQAPGKEREFVAAISTNSGSTYYADSVKGRFTISRDNAKNTVYLQMNSLKPEDTAVYYCAARGLRWRIDGEYWGQGTQVTVSS,high polyreactivity
11,QVQLVESGGGLVQAGGSLRLSCAASGPIFVYYARGWYREAPGKEREFVAAISASGGSTYYADSVKGRFTISRDTAKNTVYLQMNSLKPEDPAVYYCAADRLRNRPRGLREYYWGQGTQVTVSS,low polyreactivity
12,QVQLVESGGGLVQAGGSLRLSCAASGRIFTYYTKGWSRQAPGKERELVAAITRGGITNYADSVKGRFTISRDNAKNTVYLQMNSLKPEDTAVYYCNAVARVYSEGIRYGYWGQGTQVTVSS,high polyreactivity
13,QVQLVESGGGLVQAGGSLRLSCAASGFIFNFYAMGWYRQAPGKERELVAAISRSGGRTYYADSVKGRFTISRDNAKNTVYLQMNSLKPEDTAVYYCAAVTKSLYGYDYWGQGTQVTVSS,low polyreactivity
14,QVQQQESGGGLVQAGGSLRLSCAASGYIFQAENMGWYRQAPGKERELVAAITIGASTYYADSVRGRFTISRDNAKNTVYLQMNSVKPEDTAVYYCAAKRFQYRTLYDYWGQGTQVTVSS,high polyreactivity
15,QVQLVESGGGLVQAGGSLRLSCAASGRTLPANGMGWYRQAPGKQREFVAAINWRGGITYYADSVKGRFTISRDNSKNTVYLQMNSLNPEDTAVYYCARLRYFLLNGSLRYGTSDRDYWGQGTQVTVSS,high polyreactivity
16,QVQLVESGGGLVQAGGSLRLSCAASGSTFPVYAMGWYRQAPGKERELVAAITSGVSTNYADSVKGRFTISRDNAKNTVYLQMNSLKPEDTAFYYCAKDFGLLPIRDDYWGQGTQVTVSS,low polyreactivity
17,QVQLVESGGGLVQAGGSLRLSCAASGSLFEWYAMGWSRQAPGKEREFVADITYNGGSTYYADSVKGRFTISRDNAKNTVYLHMNSLKPEDTAVYYCAADYFVQVPDYYYPSEYGYWGQGTQVTVSS,low polyreactivity
18,QVQLVESGGGLVQAGGSLRLSCAASGGTFRLNAMGWYRQAPGKERELVATITRRGGSTYYADSVKGRFTISRDNAKNTVYLQMNSLKPEDTAVYYCAARDVYRGGLFDYWGQGTQVTVSS,high polyreactivity
19,QVQLVESGGGLVQAGGSLRLSCAASGSTFASNAMGWYRQAPGKERELVATINGDGSTNYADSVKGRFTISRDNAKNTVYLQMNSLKPEDTAVYYCNARYDYYGFWYQPYTLEVDYWGQGTQVTVSS,low polyreactivity
20,QVQLVESGGGLVQAGGSLRLSCAASGGIFSAYVMGWSRQAPGKERELVAAITRRGGSTYYADSVKGRFTISRDNAKNTVYLQMNSLKPEDTAVYYCAALLRGQDRTMDYWGQGTQVTVSS,high polyreactivity

row,Sequence,polyreactivity (PSR sort gate)
1,QVQLVESGGGLVQAGGSLRLSCAASGRIFHFYAMGWYRQAPGKERELVAAISWSGGSTYYADSVKGRFTISRDNAKNTVYLQMNSLKPEDTAVYYCSKVRGEVAHRKVQYDYWGQGTQVTVSS,low polyreactivity
2,QVQLVESGGGLVQAGGSLRLSCAASGFTASYAMGWYRQAPWKERELVATINSGGGSTRYADSVKGRFTISRDNAKNTVYLQMNSLKPEDTAVYYCAKRWRRNFDYWGQGTQVTVSS,high polyreactivity
3,QVQLVESGGGLVQAGCSLRLSWAASGFTFTYYAMGWYRQEPGKERELVAAISDGGASTYYSDSVKGRFTISRDNAKNTVYLQMNSLKPEDTAVYYCAAETYWPWKDDYWGQGTQVTVSS,high polyreactivity
4,QVQLVESGGGLVQAGGSLRLSCAAYGSIFYWYAMGWYRQAPGKERELVAAISSSNDSTDYADSVKGRFTISRDNAKNTVYLQMNSLKPEDTAVYYCAALYGTIQYDYWGQGTQVTVSS,low polyreactivity
5,QVQLVESGGGLVQAGGSLRLSCAASGSIFPYYAMGWYRKAPGKERELVAAISSSGGSTTYADSVKGRFTISRDHAKNTVYLQMNSLKPEDTAVYYCAALTYRRSSGGFDYWGQGTQVTVSS,high polyreactivity
6,QVQLVESGGGLVQAGGSLRLSCAASGIIQVYNTMGWYRQAPGKERELVAAINYSGGSTNYADSVKGRFTISRDNAKNTVYFQMNSLKPEDTAVYYCNARYGGFNVPYLRYEHWGQGTQVTVSS,low polyreactivity
7,QVQLVESGGGLVQAGGSLRLSCAASGSTFAANAMGWYRQAPGKERELVATISYRGGSTYYADSVKGRFTISRDNAKNTVYLQMNSLKPEDTAVYYCAAKLYYAFYSRYNYWGQGTQVTVSS,high polyreactivity
8,QVQLVESGGGLVQAGGSLRLSCAASGSTFGYNAMGWYRQAPGKERELVAAISRSGGRTYYADSVKGRFTISRDNAKNTVYLQMNSLKPEDTAVYYCATYYTNKVPARYYWGQGTQVTVSS,high polyreactivity
9,QVQLEESGGGLVQAGGSLRLSCAASGSTFRDYAMGWYRQAPGKQRELVAAITSGGSTNYADSVKGRFTISRDNAKNTVYLQMNSLKPEDTAVYYCNARYAGWYTPWGRQSVYSDDYWGQGTQVTVSS,low polyreactivity
10,QVQLVESGGGLVQAGGSLRLSCAASGSTFYSNAMGWYRQAPGKERELVAAISYSGGRTYYADSVKGRFTISRDNAKNTVFLQMNSLKPEDTAVYYCNKAYRRYIWHMDYWGQGTQVTVSS,high polyreactivity
11,QVQLVESGGGLVQAGGSLRLICAASGSTFGRYAMGWYRQAPGKERELVARISWGGGSTYYADSVKGRFTISRDNAKNTVYLQMYSLKPEDTAVYYCATRVYRSAVSYDYWGQGTQVTVSS,high polyreactivity
12,KVQLVESGGGLVQAGGSLRLSCAASGSTFYQYAMGWYRQAPGKERELVAVITGSGGSTYYADSVKGRFTISRDNAKNTVYLQMNSLKPEDTAVYYCAAGARYFKYRTTSLGGNYWGQGTQVTVSS,high polyreactivity
13,QVQLVESGGGLVQAGGSLRLSCAASGRTFWVYAMGWYRQAPGKERELVASISWSVGSTYYADSVKGRFTISRDNAKNTVYLQMNSLKPEDTAVYYCAVDPATNVEGDYWGQGTQVTVSS,low polyreactivity
14,QVQHVESRGGLVQAGGSLRLSCAASGLILSGYTMGWYRQAPGKERELVAAISRSGGSTYYADSVKGRFTISRDNAKNTVYLQMNSLKPEDTAVYYCAKVPIYRYGVWAMNYWGQGTLVTVSS,high polyreactivity
15,QVQLVESGGGLVQAGGSLRLSCAASGSILQTNVMGWYIQAPGKEREFVAAIRWSTVSTYYADSVKGRFTISRDNAKNTVYLQMNSLKPEDTAVYYCASAKSWYSYKMDYWGQGTQVTVSS,low polyreactivity
16,QVQLVESGGGLVQAGGSLRLSCAASGSIFTKYAMGWYRQAPGKEREFVAAITLSGGSTYYADSVKGRFTIGRDNAKNTVYLQMNSLKPEDTAVYYCNAAYTYVTAWYYYWGQGTQVTVSS,high polyreactivity
17,QVQLVESGGGLVQAGGSLRLSCAASGLILQYYVMGWYRQAPGKERELVAAITRSGGGTYYADSVKGRFTISRDKAKNTVYLQMNSLIPEDTAVYYCAAQRQYGKFDYWGQGTQVTVSS,high polyreactivity
18,QVQLVESGGGLVQAGGRLRLSSAASGIIFGNNAMGWYRQAPGKERELVAAIRYSGGRTYYADSVKGRFTISRDIAKNTVYLQMNSLKPEDTAVYYCNALRRGPDGSDYWGQGTQVTVSS,high polyreactivity
19,QVQLVESGGGLVQAGGSLRLSCAASGIIFTDYAMGWYRQAPGKERELVAAISSGGGSTYYADSVKGRFTISRDNAKNTVYLQMNSLKPEDTAVYYCAAEGYLISGAGDYLYDYYWGQGTQVTVSS,high polyreactivity
20,QVQLVESGGGLVQAGGSLRLSCAASGRIFWRNAMVWYRQAPGKERELVAAISGSGGSTSYADSVKGRFTISRDNAKNTVYLQMNSLKPEDTAVYYCAAKYYYNWHRQGYDYWGQGTQVTVSS,high polyreactivity
